The target of this test is SARS-CoV-2 spike protein, wild type, on live virus (SARS-CoV-2-mNG / USA-WA1/2020) (SARS-CoV-2) (UniProt P0DTC2). The test can be described thus: cell-based or functional assay.

Substance “IgG antibody carrying the VH and VL regions of Sotrovimab (S309)” had a Neutralization EC50 of 0.17 µg/mL.
